Source: patent publication US20130177579A1 (BIOALLIANCE C V, published 2013)

Experiments:
[1] = target: T1, human transferrin receptor expressed by normal human cells (RBC, PMN, lymphocytes, monocytes, platelets, … (human, UniProt P02786 1-760)); test: FACS, lymphocytes, donor D005, 1/10x
T1 construct: The assay is whole-cell FACS on normal donor cells; also called TfR on normal cells
Method: (§1) Preparation of PBMC and PMN: The whole blood was diluted with an equal volume of PBS and mixed with 1/10 volume of 15% Dextran solution. […] After centrifugation at 2200 rpm for 15 min (rotor: SORVALL, PN11788 and centrifuge: SORVALL, RT7), PBMC concentrated in the interface, were collected and washed with large volumes of FACS buffer (2% FBS in PBS) for future use. The PMN-rich pellet was collected, from which residual RBC was removed by hypotonic lysis in 0.2% NaCl.
(§2) 1×10⁵ cells were seeded in each well of a v-bottomed 96-well plate and incubated with 50 μl of hybridoma culture supernatant at 1× and 10× dilution, or isotype control antibody mouse IgM, κ (BD™, Cat. No. 557275) at concentration of 1 μg/ml. A 300× dilution of human cell hyper-immune serum was used as binding positive control for all cell types. PE-conjugated anti-human CD41a (Southern Biotech™, Cat. No. 9391-09) was used as a positive control for staining human platelets. Anti-sialyl Lewis x antibody (Millipore™, Cat. No. MAB2096) was used as a positive control for staining human PMN. Anti-human CD31 (Hycult™, Cat. No. HM2039) was used as a positive control for staining HUVEC. After 30 minutes incubation at 4° C., cells were washed twice with 200 μl FACS buffer (1×PBS containing 1% FBS), stained with 50 μl of 1 μg/ml goat F(ab′)2-anti-mouse IgG(H+L)-PE (Southern Biotech™, Cat. No. 1032-09) or 1 μg/ml goat F(ab′)2-anti-mouse IgM(H+L)-PE (Southern Biotech™, Cat. No. 1022-09) in FACS buffer. After 30 minutes of incubation at 4° C., cells were washed twice with FACS buffer and analyzed by flow cytometry (BD LSR, BD Life Sciences).

[2] = target: T1, human transferrin receptor expressed by …; test: FACS, lymphocytes, donor D014, 1/10x
Method: as §1, §2

[3] = target: T1, human transferrin receptor expressed by …; test: FACS, platelets, donor D016, 1/10x
Method: (§3) The hyper-immuned serum (Hyp-serum) or the corresponding cell marker antibodies for certain cell types were included as positive controls.
as §2

[4] = target: T1, human transferrin receptor expressed by …; test: FACS, PMN, donor D102, 1/10x
Method: as §1, §2

[5] = target: T1, human transferrin receptor expressed by …; test: FACS, monocytes, donor D102, 1x
Method: as §1, §2

[6] = target: T1, human transferrin receptor expressed by …; test: FACS, platelets, donor D016, 1x
Method: as §3, §2

[7] = target: human transferrin receptor expressed by nonhematopoietic cancer cells (human) (UniProt P02786); test: FACS, H358 cells, 1/10X
[8] = target: T1, human transferrin receptor expressed by …; test: FACS, PMN, donor D102, 1x
Method: as §1, §2

[9] = target: T1, human transferrin receptor expressed by …; test: FACS, RBC, donor D102, 1x
Method: as §3, §2

[10] = target: T1, human transferrin receptor expressed by …; test: FACS, PMN, donor D014, 1/10x
Method: as §1, §2

[11] = target: human transferrin receptor expressed by nonhematopoietic cancer cells (human) (UniProt P02786); test: FACS, Panc02.03B cells, 1/5X
[12] = target: human transferrin receptor expressed by nonhematopoietic cancer cells (human) (UniProt P02786); test: FACS, H358 cells, 1X
[13] = target: T1, human transferrin receptor expressed by …; test: FACS, platelets, donor D005, 1/10x
Method: as §3, §2

[14] = target: T1, human transferrin receptor expressed by …; test: FACS, PMN, donor D016, 1x
Method: as §1, §2

[15] = target: T1, human transferrin receptor expressed by …; test: FACS, PMN, donor D014, 1x
Method: as §3, §2

[16] = target: T1, human transferrin receptor expressed by …; test: FACS, lymphocytes, donor D016, 1/10x
Method: as §3, §2

[17] = target: T1, human transferrin receptor expressed by …; test: FACS, monocytes, donor D014, 1/10x
Method: as §1, §2

[18] = target: T1, human transferrin receptor expressed by …; test: FACS, monocytes, donor D005, 1x
Method: as §1, §2

[19] = target: T1, human transferrin receptor expressed by …; test: FACS, monocytes, donor D016, 1/10x
Method: as §3, §2

[20] = target: T1, human transferrin receptor expressed by …; test: FACS, monocytes, donor D014, 1x
Method: as §3, §2

Sequence of human transferrin receptor expressed by nonhematopoietic cancer cells (human) (P02786 whole entry G142S): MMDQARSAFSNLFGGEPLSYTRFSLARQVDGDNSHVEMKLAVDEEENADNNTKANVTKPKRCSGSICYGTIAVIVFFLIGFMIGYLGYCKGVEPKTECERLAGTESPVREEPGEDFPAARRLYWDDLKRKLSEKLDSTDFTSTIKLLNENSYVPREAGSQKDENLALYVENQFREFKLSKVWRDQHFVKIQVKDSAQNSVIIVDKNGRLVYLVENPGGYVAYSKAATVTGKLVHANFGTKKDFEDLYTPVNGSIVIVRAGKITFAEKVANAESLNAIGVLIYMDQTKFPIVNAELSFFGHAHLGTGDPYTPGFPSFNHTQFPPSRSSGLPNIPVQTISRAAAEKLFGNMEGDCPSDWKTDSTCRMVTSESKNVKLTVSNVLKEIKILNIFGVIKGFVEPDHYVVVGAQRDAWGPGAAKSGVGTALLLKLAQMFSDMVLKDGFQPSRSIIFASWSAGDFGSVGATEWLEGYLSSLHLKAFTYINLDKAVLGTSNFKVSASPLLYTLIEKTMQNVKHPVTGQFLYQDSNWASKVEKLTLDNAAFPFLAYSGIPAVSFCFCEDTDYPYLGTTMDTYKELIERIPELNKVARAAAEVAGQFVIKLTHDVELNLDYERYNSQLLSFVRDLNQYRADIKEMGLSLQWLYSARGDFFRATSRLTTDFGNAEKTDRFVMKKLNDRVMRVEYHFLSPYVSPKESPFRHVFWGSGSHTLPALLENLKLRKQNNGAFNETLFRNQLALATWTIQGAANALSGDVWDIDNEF
T1 sequence (P02786 whole entry G142S): as above

| Binder | % positive cell binding [1] [%] | % positive cell binding [2] [%] | % positive cell binding [3] [%] | % positive cell binding [4] [%] | % positive cell binding [5] [%] | % positive cell binding [6] [%] | MFI [7] [MFI] | % positive cell binding [8] [%] | % positive cell binding [9] [%] | % positive cell binding [10] [%] | MFI [11] [MFI] | MFI [12] [MFI] | % positive cell binding [13] [%] | % positive cell binding [14] [%] | % positive cell binding [15] [%] | % positive cell binding [16] [%] | % positive cell binding [17] [%] | % positive cell binding [18] [%] | % positive cell binding [19] [%] | % positive cell binding [20] [%] |
| --- | --- | --- | --- | --- | --- | --- | --- | --- | --- | --- | --- | --- | --- | --- | --- | --- | --- | --- | --- | --- |
| antibody 55-31 (antibody, mouse IgM, V domains shown, Mouse IgM, kappa from a hybridoma; tested as hybridoma culture supernatant) VH: QVQLQQPGAELVKPGTSVKLSCKASGYNFTSYWINWVKLRPGQGLEWIGDIYPGSGSTNYNEKFKSKATLTVDTSSSTAYMQLSSLASEDSALYYCARSAYRYDWFAYWGQGTLVTVSA VL: DIQMTQSPASLSVSVGETVTITCRASENIYSNLAWYQQKQGKSPQLLVYAATNLADGVPSRFSGSGSGTQYSLKINSLQSEDFGSYYCQHFWGTPYTFGGGTKLEIKR | 2 | 1 | < 1 | 1 | 3 | < 1 | 295 | 1 | < 1 | < 1 | 314 | 234 | < 1 | < 1 | < 1 | 1 | < 1 | 4 | < 1 | < 1 |
| antibody 6-90 (antibody, mouse IgM, V domains shown, Mouse IgM, kappa from a hybridoma; tested as hybridoma culture supernatant) VH: EVELQQFGIEMVKPGASVKISCKASGYIFTDYHMDWVRQSHGKSLEWIGDIDPKYDRVTYNQKFKGKASLTADKSSSTAYMELRSLTSEDTAVYYCAKTGAYGDYLAYWGQGTLVTVSA VL: DLVMTQTPLSLPVSLGDQASISCRSSQSLVHSDGNTYFYWYLQKPGQSPKLLIYKVSNRFSGVPDRFSAGGSGTYFTLKISRVEAEDLGVYFCSQTTHFPPTFGGGTKLEIKR | 3 | 1 | < 1 | 1 | 2 | < 1 | 1600 | 1 | < 1 | < 1 | 4910 | 823 | < 1 | 1 | < 1 | 1 | < 1 | 2 | < 1 | < 1 |
| antibody 122-72 (antibody, V domains shown, Mouse IgM, kappa from a hybridoma; tested as hybridoma culture supernatant; Antibody 60-43 is said to have the same CDRs) VH: EVQLVESGGGLVQPKGSLKLSCAASGFTFNTYAMNWVRQAPGKGLEWVARIRSKSNNYATYYADSVKDRFTISRDDSQSMLYLQMNNLKTEDTAMYYCVAYGSRNYWGQGTTLTVSS VL: DIVMTQSPSSLTVTAGEKVTMSCKSSQSLLNSGNQKNYLTWYQQKPGQPPKLLIYWASTRESGVPDRFTGSGSGTDFTLTISSVQAEDLAVYYCQNDYSYPYTFGGGTKLEIKR | 1 | 1 | < 1 | 1 | 1 | < 1 | 2460 | 1 | < 1 | < 1 | 4670 | 942 | < 1 | < 1 | 1 | 1 | 1 | 2 | 1 | < 1 |
